Laboratory results published in ChEMBL document CHEMBL3861952, “Donepezil-like multifunctional agents: Design, synthesis, molecular modeling and biological evaluation” (Eur J Med Chem, 2016).

Columns and labels:
[1] = substrate: C#CCN(Cc1ccc2cccc(O)c2n1)C(C#N)CCC1CCN(Cc2ccccc2)CC1; settings: Homo sapiens; HEK293; 200 nM
[2] = substrate: C#CCN(Cc1ccc2cccc(O)c2n1)C(C#N)CCC1CCN(Cc2ccccc2)CC1; settings: Homo sapiens; HEK293; 20 nM
[3] = substrate: C#CCN(Cc1ccc2cccc(O)c2n1)C(C#N)CCC1CCN(Cc2ccccc2)CC1; settings: Homo sapiens; HEK293; 50 nM
Description: Inhibition of human recombinant BuChE expressed in HEK293 cells using S-butyrylthiocholine iodide as substrate assessed as enzyme Vmax at 50 nM preincubated for 30 mins followed by substrate addition measured after 30 mins by Lineweaver-Burk plot analysis

[4] = substrate: C#CCN(Cc1ccc2cccc(O)c2n1)C(C#N)CCC1CCN(Cc2ccccc2)CC1; settings: Homo sapiens; HEK293; 100 nM
[5] = substrate: C#CCN(Cc1ccc2cccc(O)c2n1)C(C#N)CCC1CCN(Cc2ccccc2)CC1; settings: Homo sapiens; HEK293; 200 nM; remark: listed apart in the source
[6] = substrate: C#CCN(Cc1ccc2cccc(O)c2n1)C(C#N)CCC1CCN(Cc2ccccc2)CC1; settings: Homo sapiens; HEK293; 100 nM; remark: listed apart in the source
[7] = substrate: C#CCN(Cc1ccc2cccc(O)c2n1)C(C#N)CCC1CCN(Cc2ccccc2)CC1; settings: Homo sapiens; HEK293; 20 nM; remark: listed apart in the source
[8] = substrate: C#CCN(Cc1ccc2cccc(O)c2n1)C(C#N)CCC1CCN(Cc2ccccc2)CC1; settings: Homo sapiens; HEK293; 50 nM; remark: listed apart in the source
Description: Inhibition of human recombinant BuChE expressed in HEK293 cells using S-butyrylthiocholine iodide as substrate assessed as enzyme Km at 50 nM preincubated for 30 mins followed by substrate addition measured after 30 mins by Ellman's method

[9] = substrate: C#CCN(Cc1ccc2cccc(O)c2n1)C(C#N)CCC1CCN(Cc2ccccc2)CC1; settings: Homo sapiens; HEK293; 100 nM; remark: listed apart in the source
[10] = substrate: C#CCN(Cc1ccc2cccc(O)c2n1)C(C#N)CCC1CCN(Cc2ccccc2)CC1; settings: Homo sapiens; HEK293; 200 nM; remark: listed apart in the source
[11] = substrate: C#CCN(Cc1ccc2cccc(O)c2n1)C(C#N)CCC1CCN(Cc2ccccc2)CC1; settings: Homo sapiens; HEK293; 50 nM; remark: listed apart in the source
Description: Inhibition of human recombinant AChE expressed in HEK293 cells using acetylthiocholine iodide as substrate assessed as enzyme Km at 50 nM preincubated for 30 mins followed by substrate addition measured after 30 mins by Lineweaver-Burk plot analysis

[12] = substrate: C#CCN(Cc1ccc2cccc(O)c2n1)C(C#N)CCC1CCN(Cc2ccccc2)CC1; settings: Homo sapiens; HEK293; 50 nM; remark: listed apart in the source
Description: Inhibition of human recombinant AChE expressed in HEK293 cells using acetylthiocholine iodide as substrate assessed as enzyme Vmax at 50 nM preincubated for 30 mins followed by substrate addition measured after 30 mins by Lineweaver-Burk plot analysis

[13] = substrate: C#CCN(Cc1ccc2cccc(O)c2n1)C(C#N)CCC1CCN(Cc2ccccc2)CC1; settings: Homo sapiens; HEK293; 20 nM; remark: listed apart in the source
[14] = substrate: C#CCN(Cc1ccc2cccc(O)c2n1)C(C#N)CCC1CCN(Cc2ccccc2)CC1; settings: Homo sapiens; HEK293; 100 nM; remark: listed apart in the source
[15] = substrate: C#CCN(Cc1ccc2cccc(O)c2n1)C(C#N)CCC1CCN(Cc2ccccc2)CC1; settings: Homo sapiens; HEK293; 20 nM; remark: listed apart in the source
[16] = substrate: C#CCN(Cc1ccc2cccc(O)c2n1)C(C#N)CCC1CCN(Cc2ccccc2)CC1; settings: Homo sapiens; HEK293; 200 nM; remark: listed apart in the source

Row | Protein | Km [1] [µM] | Vmax [2] [mAU/min] | Vmax [3] [mAU/min] | Vmax [4] [mAU/min] | Vmax [5] [mAU/min] | Km [6] [µM] | Km [7] [µM] | Km [8] [µM] | Km [9] [µM] | Km [10] [µM] | Km [11] [µM] | Vmax [12] [mAU/min] | Km [13] [µM] | Vmax [14] [mAU/min] | Vmax [15] [mAU/min] | Vmax [16] [mAU/min]
1 | Cholinesterase (Homo sapiens), P06276 (protein) MHSKVTIICIRFLFWFLLLCMLIGKSHTEDDIIIATKNGKVRGMNLTVFGGTVTAFLGIPYAQPPLGRLRFKKPQSLTKWSDIWNATKYANSCCQNIDQSFPGFHGSEMWNPNTDLSEDCLYLNVWIPAPKPKNATVLIWIYGGGFQTGTSSLHVYDGKFLARVERVIVVSMNYRVGALGFLALPGNPEAPGNMGLFDQQLALQWVQKNIAAFGGNPKSVTLFGESAGAASVSLHLLSPGSHSLFTRAILQSGSFNAPWAVTSLYEARNRTLNLAKLTGCSRENETEIIKCLRNKDPQEILLNEAFVVPYGTPLSVNFGPTVDGDFLTDMPDILLELGQFKKTQILVGVNKDEGTAFLVYGAPGFSKDNNSIITRKEFQEGLKIFFPGVSEFGKESILFHYTDWVDDQRPENYREALGDVVGDYNFICPALEFTKKFSEWGNNAFFYYFEHRSSKLPWPEWMGVMHGYEIEFVFGLPLERRDNYTKAEEILSRSIVKRWANFAKYGNPNETQNNSTSWPVFKSTEQKYLTLNTESTRIMTKLRAQQCRFWTSFFPKVLEMTGNIDEAEWEWKAGFHRWNNYMMDWKNQFNDYTSKKESCVGL | 1240 | 108 | 101 | 87 | 83 | 456 | 249 | 289 |  |  |  |  |  |  |  | 
2 | Acetylcholinesterase (Homo sapiens), P22303 (protein) MRPPQCLLHTPSLASPLLLLLLWLLGGGVGAEGREDAELLVTVRGGRLRGIRLKTPGGPVSAFLGIPFAEPPMGPRRFLPPEPKQPWSGVVDATTFQSVCYQYVDTLYPGFEGTEMWNPNRELSEDCLYLNVWTPYPRPTSPTPVLVWIYGGGFYSGASSLDVYDGRFLVQAERTVLVSMNYRVGAFGFLALPGSREAPGNVGLLDQRLALQWVQENVAAFGGDPTSVTLFGESAGAASVGMHLLSPPSRGLFHRAVLQSGAPNGPWATVGMGEARRRATQLAHLVGCPPGGTGGNDTELVACLRTRPAQVLVNHEWHVLPQESVFRFSFVPVVDGDFLSDTPEALINAGDFHGLQVLVGVVKDEGSYFLVYGAPGFSKDNESLISRAEFLAGVRVGVPQVSDLAAEAVVLHYTDWLHPEDPARLREALSDVVGDHNVVCPVAQLAGRLAAQGARVYAYVFEHRASTLSWPLWMGVPHGYEIEFIFGIPLDPSRNYTAEEKIFAQRLMRYWANFARTGDPNEPRDPKAPQWPPYTAGAQQYVSLDLRPLEVRRGLRAQACAFWNRFLPKLLSATDTLDEAERQWKAEFHRWSSYMVHWKNQFDHYSKQDRCSDL |  |  |  |  |  |  |  |  | 955 | 936 | 622 | 13 | 368 | 10.2 | 17.7 | 7.3
